Measured values reported in US20240239878A1 (SHANGHAI QILU PHARMACEUTICAL RESEARCH AND DEVELOPMENT CENTRE, published 2024).

T1: human DLL3 on SHP-77 cells (human, UniProt Q9NYJ7 27-618)
T1 construct: also called DLL3-expressing cells (SHP-77)
T1 sequence: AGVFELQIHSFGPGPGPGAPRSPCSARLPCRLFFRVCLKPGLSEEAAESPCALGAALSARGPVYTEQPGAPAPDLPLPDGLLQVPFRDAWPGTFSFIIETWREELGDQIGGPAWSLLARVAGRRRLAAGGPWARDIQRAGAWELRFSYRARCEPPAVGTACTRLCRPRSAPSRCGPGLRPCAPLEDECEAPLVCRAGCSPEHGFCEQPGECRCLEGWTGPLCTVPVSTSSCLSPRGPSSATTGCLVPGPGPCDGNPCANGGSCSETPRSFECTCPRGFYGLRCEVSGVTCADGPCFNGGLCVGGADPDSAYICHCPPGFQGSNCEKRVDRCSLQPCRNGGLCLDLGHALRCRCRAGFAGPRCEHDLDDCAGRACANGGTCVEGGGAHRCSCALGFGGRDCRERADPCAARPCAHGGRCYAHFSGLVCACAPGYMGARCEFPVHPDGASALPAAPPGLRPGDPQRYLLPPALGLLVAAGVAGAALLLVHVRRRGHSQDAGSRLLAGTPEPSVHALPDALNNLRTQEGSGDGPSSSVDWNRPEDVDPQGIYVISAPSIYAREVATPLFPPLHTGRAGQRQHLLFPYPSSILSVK

T2: Cynomolgus monkey DLL3 on HEK293 cells (HEK293-cyno DLL3) (Cynomolgus monkey, UniProt Q9NYJ7 27-618 (human entry))
T2 chain: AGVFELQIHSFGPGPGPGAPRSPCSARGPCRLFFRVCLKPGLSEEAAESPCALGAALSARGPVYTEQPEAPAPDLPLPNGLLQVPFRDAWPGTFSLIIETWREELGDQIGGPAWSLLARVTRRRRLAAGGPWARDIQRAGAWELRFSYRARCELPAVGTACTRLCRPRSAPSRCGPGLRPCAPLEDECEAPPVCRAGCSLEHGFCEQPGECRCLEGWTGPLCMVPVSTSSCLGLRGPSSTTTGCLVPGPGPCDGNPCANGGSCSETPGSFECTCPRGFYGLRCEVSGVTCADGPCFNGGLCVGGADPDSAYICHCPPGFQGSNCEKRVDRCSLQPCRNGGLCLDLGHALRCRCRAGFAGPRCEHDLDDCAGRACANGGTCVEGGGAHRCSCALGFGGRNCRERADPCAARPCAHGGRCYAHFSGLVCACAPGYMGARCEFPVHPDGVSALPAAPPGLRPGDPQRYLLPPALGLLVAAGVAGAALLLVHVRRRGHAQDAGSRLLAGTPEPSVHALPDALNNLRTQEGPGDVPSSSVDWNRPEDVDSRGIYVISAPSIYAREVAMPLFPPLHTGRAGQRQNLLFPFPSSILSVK


What was measured:
[1] = molecular target: T1, human DLL3 on SHP-77 cells; assay: flow cytometry, SHP-77 cells
Procedure: (§1) SHP-77 and HEK293-cyno DLL3 cells were cultured. The culture medium for SHP-77 cells were RPMI1640+10% FBS, and the culture medium for HEK293 cyno DLL3 cells were DMEM+10% FBS+200 μg/ml Hygromycin. The cells were cultured in a T75 cell culture flask at a 37° C. 5% CO₂ incubator. When using cells, they are washed with sterile DPBS, digested with 0.25% trypsin EDTA for about 5 minutes, and then stopped with a complete medium.
(§2) The digested cells were centrifuged at 1000 rpm for 5 min at room temperature. The supernatant was discarded and the cells were resuspended in 100 μL of 1% BSA (in PBS). The cells were counted and adjusted to a cell density of 1E6/m. The dilute cells were seeded in a 96-well round-bottom culture plate (corning 3799), and centrifuged at 1500 rpm for 5 min at 4° C. The supernatant was discarded and the cells were stored at 4° C. until use. Antibody samples to be tested were diluted with 1% BSA (in PBS) at a starting concentration of 100 nM, downwards by a 10-fold gradient for 7 concentrations. The cells were resuspended with the diluted antibody at 100 μL/well and incubated for 1 hour at 4° C. The cells were centrifuged at 1500 rpm for 5 minutes at 4° C. and the supernatant was discarded. The cells were resuspended and washed with 160 μL of 1% BSA (in PBS), centrifuged at 1500 rpm for 5 minutes at 4° C. The supernatant was discarded. The secondary antibody (goat anti human IgG Fc PE) was diluted 1:200 with 1% BSA (in PBS) according to the manufacturer's instructions and the cells were resuspended with the diluted secondary antibody, 100 μL/well, and incubated for 0.5 h at 4° C. The cells were centrifuged at 1500 rpm for 5 minutes at 4° C. and the supernatant was discarded. The cells were resuspended and washed with 160 μL of 1% BSA (in PBS), centrifuged at 1500 rpm for 5 minutes at 4° C. The supernatant was discarded. The cells were resuspended in 100 μL of 1% BSA (in PBS), and filtered across a 300 mesh gauze. The mean fluorescence intensity of the PE channels was measured by flow cytometry.
(§3) The analyzed mean fluorescence intensity was imported into Graphpad to analyze the median-binding concentration (hereinafter referred to as EC50) of antibody and cell and the top mean fluorescence intensity (Top MFI).

[2] = molecular target: T2, Cynomolgus monkey DLL3 on HEK293 cells …; assay: flow cytometry, HEK293-cyno DLL3 cells
Procedure: as §1, §2, §3

Row | Binder | EC50 [1] [nM] | Top MFI [1] [MFI] | EC50 [2] [nM] | Top MFI [2] [MFI]
1 | DLL3-122 camelid-derived anti-DLL3 chimeric antibody (antibody, human IgG1, V domains shown) VH: QVQLVESGGGSVQAGGSLRLSCTASGDTYRSYCMGWFRKAPGKEREGVADIVSDGSTSYADSVKGRFTISKDNAKNTLYLQMNSLKPEDTAMYYCAVDRGGSGGYCYTGRYDYWGQGTQVTVSS | 0.478 | 877 | 0.58 | 351
2 | hDLL3-3-1 camelid-derived humanized anti-DLL3 antibody (antibody, human IgG1, V domains shown) VH: EVQLVESGGGLVQPGGSLRLSCAASTYTISSGYMGWFRQAPGKEREGVAAIYIGGSTTLYADSVKGRFTISRDNSKNTLYLQMNSLRAEDTAVYYCAAQLRPNSAYHPLDGRKYNYWGQGTLVTVSS | 0.086 | 702 | 0.22 | 346
3 | DLL3-26 camelid-derived anti-DLL3 chimeric antibody (antibody, human IgG1, V domains shown) VH: QVQLVESGGGSVQAGGSLRLSCAASGDIYSSSYVGWFRQAPGKEREGVAIIYTSGDSTYYANSVKGRFTISQDKAKKTLYLQMNSLKPEDTAMYYCAARFAIDNSNYWGQGTQVTVSS | 0.499 | 841 | 0.54 | 336

Second part, the binder after the results:

Row | EC50 [1] [nM] | Top MFI [1] [MFI] | EC50 [2] [nM] | Top MFI [2] [MFI] | Binder
4 | 0.061 | 864 | 0.08 | 379 | DLL3-3 camelid-derived anti-DLL3 chimeric antibody (antibody, human IgG1, V domains shown) VH: DVQLVESGGGSVQAGGSLKLSCKSPTYTISSGYMGWFRQAPGKEREGVAAIYIGGSTTLYADSVKGRFTISADNAEKTVYLQMNTLKPEDSAMYYCAAQLRPNSAYHPLDGRKYNYWGQGTQVTVSS
5 | 0.589 | 778 | 0.99 | 351 | hDLL3-122 camelid-derived humanized anti-DLL3 antibody (antibody, V domains shown) VH: EVQLVESGGGLVQPGGSLRLSCAASGDTYRSYCMGWFRQAPGKEREGVADIVSDGSTSYADSVKGRFTISRDNSKNTLYLQMNSLRAEDTAVYYCAVDRGGSGGYCYTGRYDYWGQGTLVTVSS
6 | 0.049 | 691 | 0.15 | 344 | hDLL3-3-2 camelid-derived humanized anti-DLL3 antibody (antibody, V domains shown) VH: EVQLVESGGGLVQPGGSLRLSCKSPTYTISSGYMGWFRQAPGKEREGVAAIYIGGSTTLYADSVKGRFTISRDNSKNTLYLQMNSLRAEDTAVYYCAAQLRPNSAYHPLDGRKYNYWGQGTLVTVSS
7 | 0.786 | 696 | 2.24 | 301 | hDLL3-26 camelid-derived humanized anti-DLL3 antibody (antibody, V domains shown) VH: EVQLVESGGGLVQPGGSLRLSCAASGDIYSSSYVGWFRQAPGKEREGVAIIYTSGDSTYYADSVKGRFTISRDNSKNTLYLQMNSLRAEDTAVYYCAARFAIDNSNYWGQGTLVTVSS
